Structures can show the parent of a compound that is named as a salt. Peptide text beside a SMILES is read from it. * marks the point of attachment. Succinyl(20-O-(20S)-CPT) = CC[C@@]1(OC(=O)CCC(=O)*)C(=O)OCc2c1cc1n(c2=O)Cc2cc3ccccc3nc2-1; Fmoc = O=C(OCC1c2ccccc2-c2ccccc21)*
Key:
[1] = Solubility in PBS and water; format: physicochemical; conditions: for solubility in water: pure water (H2O)
Protocol: Three CPT-tetrapeptide (KFKK (SEQ ID NO:6)) conjugates were prepared that have alternating hydrophobic and hydrophilic sequence similar to the dipeptide derivatives with one additional lysine bearing a charged free amine. Compound E, F, and G were soluble in both H2O and PBS but as hydrophobicity decreased by changing the N-termini from -Fmoc to —NH2, solubility in both solutions increased.

[2] = Hydrolytic (lactone) stability in PBS by HPLC; format: physicochemical; conditions: for lactone form present after 7 days: stored at 10 mM
Protocol: The hydrolytic stability of C and D was measured by HPLC in PBS at 37° C. over a week as a function of concentration. […] The stability of the lactone depended strongly on the concentration (FIG. 11(A)). For example, the amount of lactone remaining after 7 days decreased from 91 to 30% for C upon changing the concentration from 10 to 0.2 mM). This progression is consistent with the non-covalent nature of the nanotube structures, which depend on concentration. However, even at 0.2 mM in PBS, 80% of the lactone remained after 24 h, in contrast to CPT, of which 17% of its structure was in the lactone form after 24 h under these conditions.

[3] = Lactone stability in human serum (HS) by HPLC
Protocol: FIG. 11 (A) is a graph showing lactone stability of CPT-dipeptides Ac-KK(CPT)-NH2 (C), and NH2—KK(CPT)-NH2 (D) in human serum (HS) at 37° C. (pH 7.4) at 1 and 10 mM, as monitored by HPLC. […] Samples were prepared at 10 mM in PBS and subsequently diluted to 1 mM in HS after 24 h.

[4] = test system: mesothelioma tumor xenografts; test: Mesothelioma (MSTO) tumor xenograft model in mice; format: in vivo; conditions: for Deaths from Tumor Burden: MSTO model, mice, weekly
Protocol: (§1) NH2—KK(CPT)-NH2 (D) was evaluated for efficacy in treating Lewis Lung Carcinoma (LLC) and mesothelioma tumor xenografts in mice. Animals were first injected with tumor cells either into the flank (LLC model; FIG. 12) or peritoneum (mesothelioma model; Table 2)), and allowed to develop small tumors. The animals were subsequently administered weekly either intravenous or intraperitoneal drugs or saline (negative control), and monitored for tumor burden and body weight over several weeks. […] But these initial studies were extremely limited in scope, only testing one of 15-20 structures that have been created. This lower efficacy is most likely due to reduced mobility of the 1D nanotubes within tissue, a property that can be beneficially exploited to increase the retention of drug within tumors by allowing the assembly process to respond structurally in the environment of the tumor cells.

[5] = test system: HT-29 cells; test: Flow cytometry of cellular uptake as a function of time; format: cell-based, human; conditions: as a function of incubation time
Protocol: To quantify the cellular uptake as a function of time, flow cytometry was conducted by monitoring the CPT dipetides at a wavelength of 420-470 nm after 335 nm excitation. […] An analogous flow cytometry study was performed with A549 cells, and similar results and trends were observed.

[6] = test system: Lewis Lung Carcinoma (LLC); test: Lewis Lung Carcinoma (LLC) flank tumor model in mice; format: in vivo; conditions: tumor cells into the flank, weekly intravenous or intraperitoneal
Protocol: as §1

[7] = test system: HT-29 cells; test: In vitro cell assay, HT-29 viability by MTS colorimetric assay; format: cell-based, human; conditions: HT-29, 4 days growth after exposure, conjugates prepared at 10 mM in PBS, aged 3 days
Protocol: The conjugates discussed in Examples 1 and 2 were tested for efficacy against killing human colorectal cancer cells in an in vitro cell assay. HT-29 cells were plated into 96-well tissue culture plates, at a density of 5,000 cells/well, and allowed to grow overnight. The conjugates were previously prepared at 10 mM in sterile PBS and allowed to age 3 days, while all other Camptothecin drugs were prepared fresh for each experiment/replicate. Irinotecan HCl was dissolved in pH-neutral, sterile-filtered water, and S-Camptothecin and 10-hydroxycamptothecin were dissolved in DMSO due to solubility issues. Further dilutions of all drugs, both Camptothecin-peptides and free Camptothecin derivatives, were performed in cell culture medium. The cells were then exposed to serial dilutions containing the drugs or cell culture medium alone for the control. A peptide derivative was prepared without Camptothecin to serve as a control to test for toxicity of the peptides themselves, and was also tested in this assay. The cells were then allowed to grow for a further 4 days before being assessed for viability using an MTS colorimetric assay.

CC[C@@]1(OC(=O)CCC(=O)NCCCC[C@H](NC(=O)[C@H](CCCCNC(C)=O)NC(=O)OCC2c3ccccc3-c3ccccc32)C(N)=O)C(=O)OCc2c1cc1n(c2=O)Cc2cc3ccccc3nc2-1 [A, Fmoc-K(Ac)K(CPT)-NH2]
solubility in water [1]: poor solubility

CC[C@@]1(OC(=O)CCC(=O)NCCCC[C@H](NC(=O)[C@H](CCCCN)NC(C)=O)C(N)=O)C(=O)OCc2c1cc1n(c2=O)Cc2cc3ccccc3nc2-1 [C, Ac-KK(CPT)-NH2]
lactone remaining after 24 h ([2]; 37° C., 0.2 mM): 80%
lactone remaining after 7 days ([2]; 37° C., 0.2 mM): 30%
lactone form present after 7 days ([2]; 37° C.): 91%
lactone stability after dilution to 1 mM [3]: significantly greater stability than D

CC[C@@]1(O)C(=O)OCc2c1cc1n(c2=O)Cc2cc3ccccc3nc2-1 [CPT, Camptothecin, reference compound]
Deaths from Tumor Burden ([4]; 5 mg/kg): 0/5
time to hydrolysis to the inactive carboxylate form [2]: within hours
lactone remaining after 24 h ([2]; 37° C., 0.2 mM): 17%

CC[C@@]1(OC(=O)CCC(=O)NCCCC[C@H](NC(=O)[C@H](CCCCN)NC(=O)OCC2c3ccccc3-c3ccccc32)C(N)=O)C(=O)OCc2c1cc1n(c2=O)Cc2cc3ccccc3nc2-1 [Compound B, Fmoc-KK(CPT)-NH2]
solubility in PBS [1]: poor solubility

CC[C@@]1(OC(=O)CCC(=O)NCCCC[C@H](NC(=O)[C@H](CCCCN)NC(=O)[C@H](Cc2ccccc2)NC(=O)[C@H](CCCCN)NC(=O)OCC2c3ccccc3-c3ccccc32)C(N)=O)C(=O)OCc2c1cc1n(c2=O)Cc2cc3ccccc3nc2-1 [Compound E, Fmoc-KFKK(CPT)-NH2] (Fmoc-KFKK(Succinyl(20-O-(20S)-CPT))-NH2; N-terminus and C-terminus assumed)
solubility in PBS [1]: soluble
solubility in water [1]: soluble

CC[C@@]1(OC(=O)CCC(=O)NCCCC[C@H](NC(=O)[C@H](CCCCN)NC(=O)[C@H](Cc2ccccc2)NC(=O)[C@H](CCCCN)NC(C)=O)C(N)=O)C(=O)OCc2c1cc1n(c2=O)Cc2cc3ccccc3nc2-1 [Compound F, Ac-KFKK(CPT)-NH2] (Ac-KFKK(Succinyl(20-O-(20S)-CPT))-NH2)
solubility in PBS [1]: soluble
precipitation in PBS at 10 mM [1]: remained highly soluble
solubility in water [1]: soluble

CC[C@@]1(OC(=O)CCC(=O)NCCCC[C@H](NC(=O)[C@@H](N)CCCCN)C(N)=O)C(=O)OCc2c1cc1n(c2=O)Cc2cc3ccccc3nc2-1 [D, NH2—KK(CPT)-NH2]
Deaths from Tumor Burden ([4]; 5 mg/kg): 2/5
Deaths from Tumor Burden ([4]; 15 mg/kg): 2/5
in vivo efficacy (tumor burden) ([4]; mesothelioma model, tumor cells into the peritoneum, weekly intravenous or intraperitoneal): lower in vivo efficacy
cellular uptake (fluorescence, 420-470 nm after 335 nm excitation) [5]: slightly higher than that of C
lactone form present after 7 days ([2]; 37° C.): 71%
in vivo efficacy (tumor burden) [6]: lower in vivo efficacy
solubility in PBS [1]: limited solubility

CC[C@@]1(OC(=O)CCC(=O)NCCCC[C@H](NC(=O)[C@H](CCCCN)NC(=O)[C@H](Cc2ccccc2)NC(=O)[C@@H](N)CCCCN)C(N)=O)C(=O)OCc2c1cc1n(c2=O)Cc2cc3ccccc3nc2-1 [G, NH2—KFKK(CPT)-NH2] (H-KFKK(Succinyl(20-O-(20S)-CPT))-NH2)
solubility in PBS [1]: soluble
precipitation in PBS at 10 mM [1]: remained highly soluble
solubility in water [1]: soluble

CCc1c2c(nc3ccc(OC(=O)N4CCC(N5CCCCC5)CC4)cc13)-c1cc3c(c(=O)n1C2)COC(=O)[C@]3(O)CC [Irinotecan HCl, reference compound]
potency in killing human colorectal cancer cells (viability) [7]: the least potent
Deaths from Tumor Burden ([4]; 100 mg/kg): 0/5
cellular uptake (fluorescence, 420-470 nm after 335 nm excitation) [5]: highest fluorescence

From patent US10098967B2, “Self-assembly of therapeutic agent-peptide nanostructures” (Ohio State Innovation Foundation, priority 2012, dated 2018)
